Literature values as cited in paper PMC5209733, “U24 from Roseolovirus interacts strongly with Nedd4 WW Domains” (Scientific Reports, 2017).

Experiments:
Fyn SH3 = settings: association with Fyn SH3
Source text: One possible way in which U24 may be implicated in MS is through the mimicry of myelin basic protein (MBP) because the two proteins share a seven amino acid stretch that contains a PxxP motif (Fig. 1a). This segment is essential for MBP to participate in Fyn-mediated signalling pathways by a direct but non-canonical association with the Fyn-SH3 domain[11]. Disruption of these signalling pathways has a large impact on oligodendrocyte differentiation and maturation, processes that are perturbed in MS patients. Within this PxxP motif and just before it are two threonine residues (T95 and T98), wh ...

[1] = system: human Nedd4 family E3 ubiquitin ligases: Nedd4-1, Nedd4-2, AIP4, Smurf1, Smurf2, WWP1, and WWP2; settings: pull-down assays
Source text: However, precise binding affinities are hard to extract from such results. […] We have focussed our studies on human Nedd4 WW domains (hNedd4 and hNedd4L, Fig. 1b) given their relevance in the CNS, noted above. As controls, we have u ...

Nedd4-WW1 domain = settings: found previously
Description: In order to compare with previously reported results, experiments were carried out on four relevant WW domains: the second and the third WW domain of rat Nedd4 (rNedd4-WW2 and rNedd4-WW3/4, where WW3/4 is a homologue of the fourth WW domain in human), and the pair of third WW domains from human Nedd4 (hNedd4-WW3* and hNedd4L-WW3*). The WW3 domains are indicated with a star because this type of WW domain is missing in rat and mouse Nedd4[36][37]. Nedd4-WW1 domain was not used as it was found previously not to bind U24. The WW domains mentioned above were fused to the C-terminus of GST prote ...

[2] = system: transferrin receptor (TfR)
Source text: (§1) Within the proline rich region of U24 is a PY motif that is conserved in both HHV-6A and HHV-7 (Fig. 1a). […] However, the exact mechanism by which this occurs is unknown.

[3] = system: TCR/CD3ε receptors in T-cells; settings: PY motif responsible for down-regulation
Source text: as §1

Molecule	Kd (Fyn SH3) [µM]	binding to Nedd4 family E3 ubiquitin ligases [1]	binding to Nedd4-WW1 (Nedd4-WW1 domain)	modulation of transferrin receptor [2]	recycling of TCR/CD3ε receptors to the cell surface [3]
MBP: myelin basic protein (protein, UniProt P02686 1-304, looked up) Myelin basic protein: MGNHAGKRELNAEKASTNSETNRGESEKKRNLGELSRTTSEDNEVFGEADANQNNGTSSQDTAVTDSKRTADPKNAWQDAHPADPGSRPHLIRLFSRDAPGREDNTFKDRPSESDELQTIQEDSAATSESLDVMASQKRPSQRHGSKYLATASTMDHARHGFLPRHRDTGILDSIGRFFGGDRGAPKRGSGKDSHHPARTAHYGSLPQKSHGRTQDENPVVHFFKNIVTPRTPPPSQGKGRGLSLSRFSWGAEGQRPGFGYGGRASDYKSAHKGFKGVDAQGTLSKIFKLGGRDSRSGSPMARR	4 to 8				
U24: putative tail-anchored membrane protein that is unique to roseoloviruses (protein) MDPPRTPPPSYSEVLMMDVMCGQVSPHVINDTSFVECIPPPQSRPAWNLWNNRRKTFSFLVLTGLAIAMILFIVFVLYVFHVNRQRR		can bind to most of the seven human Nedd4 family E3 ubiquitin ligases	not to bind	down-modulate the transferrin receptor	blocked from recycling back to the cell surface
